From patent publication US11911450B2, “Method for managing pain” (UNIVERSITY OF MIAMI, priority 2017, dated 2024)

B1: Car10: carbonic anhydrase 10, rodent ortholog, overexpressed (V5-tagged) protein (protein)
chain: MEIVWEVLFLLQANFIVCISAQQNSPKIHEGWWAYKEVVQGSFVPVPSFWGLVNSAWNLCSVGKRQSPVNIETSHMIFDPFLTPLRINTGGRKVSGTMYNTGRHVSLRLDKEHLVNISGGPMTYSHRLEEIRLHFGSEDSQGSEHLLNGQAFSGEVQLIHYNHELYTNVTEAAKSPNGLVVVSIFIKVSDSSNPFLNRMLNRDTITRITYKNDAYLLQGLNIEELYPETSSFITYDGSMTIPPCYETASWIIMNKPVYITRMQMHSLRLLSQNQPSQIFLSMSDNFRPVQPLNNRCIRTNINFSLQGKDCPNNRAQKLQYRVNEWLLK
modifications: left off: small tags and cut ends
notes: carbonic anhydrase 10, rodent ortholog, overexpressed (V5-tagged) protein
B2: CA10: human carbonic anhydrase 10, overexpressed (V5-tagged) protein; SEQ ID NO: 9 (protein)
chain: MEIVWEVLFLLQANFIVCISAQQNSPKIHEGWWAYKEVVQGSFVPVPSFWGLVNSAWNLCSVGKRQSPVNIETSHMIFDPFLTPLRINTGGRKVSGTMYNTGRHVSLRLDKEHLVNISGGPMTYSHRLEEIRLHFGSEDSQGSEHLLNGQAFSGEVQLIHYNHELYTNVTEAAKSPNGLVVVSIFIKVSDSSNPFLNRMLNRDTITRITYKNDAYLLQGLNIEELYPETSSFITYDGSMTIPPCYETASWIIMNKPVYITRMQMHSLRLLSQNQPSQIFLSMSDNFRPVQPLNNRCIRTNINFSLQGKDCPNNRAQKLQYRVNEWLLK
modifications: V5 tag

Key:
[1] = tested on: neuropathic (Chung) mouse pain model; experiment: neuropathic (Chung, spinal nerve ligation) mouse pain model, mechanical withdrawal threshold (von Frey); format: in vivo, C57BL/6J mice; settings: sciatic nerve injection; spinal nerve ligation on Day 19
Protocol: Sciatic nerve injection of expression vectors (adeno-associated AAV8-V5-Car10 and AAV8-V5-CA10 vectors): Mice were anesthetized by intraperitoneal injection of Ketamine, xylazine and acepromazine cocktail (VEDCO, Saint Joseph, MO). Following sciatic nerve exposure, about 1.5 μl viral particles of AAV8-null (1.36E^13 viral particles, SL100832 SignaGen Laboratories Rockville, MD), AAV8-V5-Car10 and AAV8-V5-CA10 (1.06E^14 viral particles and 1.66E^14 viral particles, respectively) were injected into the sciatic nerve using a 35-gauge Nanofil needle (World Precision Instruments, Sarasota, FL). The sciatic injection site was approximately 45 mm from the tip of the third toe.
Neuropathic pain model: For the induction of peripheral neuropathy, mice were first anesthetized by an intraperitoneal injection of ketamine, xylazine hydrochloride and acepromazine (VEDCO, Saint Joseph, MO). […]
Behavioral tests: Thermal and mechanical sensitivity was measured by Hargreaves test and von Frey filament threshold calculations respectively. […] The mouse hind paw was pressed with one of a series of von Frey filaments with logarithmically incrementing stiffness (Stoelting Co, Wood Dale, IL) presented perpendicular to the plantar surface of each hind paw for 1-2 seconds, the 50% threshold was determined using the Up- and Down method.

[2] = tested on: intracellular calcium release in NBL cells; experiment: ATP-stimulated calcium release in NBL cells (Fura2 imaging); format: cell-based, human; settings: 1 μM ATP, vs empty vector
Protocol: Pharmacodynamics—Bioassay of Calcium Release: Fifteen mm glass coverslips (cat #72228 Electron Microscopy Sciences, Hatfield, PA) were coated with poly-D-Lysine (Sigma) followed by Laminin and 1×10^5 cells were seeded on each coverslip. Twenty-four hrs later, cells were transfected with AAV2-ITR, AAV2-V5-Car10, or AAV2-V5-CA10 vectors as previously described. In embodiments wherein AAV2 is not employed, other expression vectors (including viral vectors) are used. Fura-2AM (cat #F1221 ThermoFisher scientific, Waltham, MA) was dissolved in DMSO (50 μg in 50 μl) and 1% pluronic acid-127 (cat #P2443 Sigma, St Louis, MO) as the stock solution. Forty eight hrs after seeding, cells were loaded with 2 μM Fura-2AM dye for 45 min at room temperature in the dark in a standard Ca+2 buffer solution containing: 125 mM NaCl, 2 mM MgCl, 4.5 mM KCl, 10 glucose, 20 mM HEPES, 2 mM CaCl2, pH 7.4.25. Following dye loading, coverslips were washed with Ca^+2 buffer solution. […] Regions of interest over the field of view were selected and the mean pixels intensity at each frame was measured. Data was plotted as ratio fluorescence intensity versus time and subsequently converted to a relative scale. […]

Molecule | mechanical withdrawal threshold [1] | ATP-stimulated calcium release [2]
B1 | prevents mechanical hyperalgesia | 
B2 | prevents mechanical hyperalgesia | inhibited
